# Results: US20160039916A1 (MISFOLDING DIAGNOSTICS, published 2016)
# Ends that are not written are not given here.
# T1: Peptide 13 (TSESGELHGLTTE) (also: biotinylated)
# T1 construct: Lies on the D-strand of TTR
# T1 peptide: TSESGELHGLTTE
# Biological target: T1, Peptide 13 (TSESGELHGLTTE)
# Assay: indirect ELISA: biotinylated peptide 13 (TSESGELHGLTTE) captured on NeutrAvidin, antibody titrated, HRP secondary antibody, TMB, % max. binding, the axis is Log10 [Antibody] nM
binder,measurement,value
"MFD108 (antibody, V domains shown) VH: EVQLVESGGDLVKPGGSLKLSCAASGFTFSNYGMSWVRQTPDKRLEWVATITSGGSYTYYPDSVKGRFTISRDNAKNTLYLQMSSLKSEDTAMYYCARDGTAWFAYWGQGTLVTVSA VL: DIQMTQTTSSLSASLGDRVTISCRASQDISNYLNWYQQKPDGTVKLLIYYTSRLHSGVPSRFSGSGSGTDYSLTISNLEEEDIATYFCQQGNTLRTFGGGTKLEIK",EC50,0.247 nM
